Here are results for 6 molecules from paper PMC2873289, “A Helix Replacement Mechanism Directs Metavinculin Functions” (PLoS ONE, 2010).

Positions count from the first letter of the chain named. Numbers in names are those of the source.

For series [1], the target named is T1, GST tagged vinculin tail domain (GST-Vt; residues 879–1,066) (human, UniProt P18206-2 879-1066).
T1 construct: human vinculin tail domain, residues 879-1,066 of vinculin (1,066-residue isoform), cloned in pGEX-4T-1; source: E. coli BL21-DE3, purified (GSTrap FF, Superdex 75)
T1 sequence (looked up): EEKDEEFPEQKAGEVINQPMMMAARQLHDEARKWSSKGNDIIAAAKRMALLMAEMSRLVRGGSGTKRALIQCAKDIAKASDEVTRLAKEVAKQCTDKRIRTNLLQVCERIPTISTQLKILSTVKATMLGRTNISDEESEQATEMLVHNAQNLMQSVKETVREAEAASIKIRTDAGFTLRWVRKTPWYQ
The series can be described thus: pull-down; GST-Vt on GST-Sepharose beads, with or without PIP2; tail domains (MVt, MVt-ΔH1) or Vh2–Vh3 as negative control; SDS-PAGE and Western blot with HRP-conjugated αHis or αGST antibodies. The conditions noted are these: both partners purified. A general note: Immunoblotting shows a protein as a band on a membrane.

Series [2] has as its target T2, head domain of vinculin (VH; residues 1–843) (human, UniProt P18206 1-843).
T2 construct: human vinculin head domain, residues 1-843 (the same in vinculin and metavinculin)
T2 sequence (looked up): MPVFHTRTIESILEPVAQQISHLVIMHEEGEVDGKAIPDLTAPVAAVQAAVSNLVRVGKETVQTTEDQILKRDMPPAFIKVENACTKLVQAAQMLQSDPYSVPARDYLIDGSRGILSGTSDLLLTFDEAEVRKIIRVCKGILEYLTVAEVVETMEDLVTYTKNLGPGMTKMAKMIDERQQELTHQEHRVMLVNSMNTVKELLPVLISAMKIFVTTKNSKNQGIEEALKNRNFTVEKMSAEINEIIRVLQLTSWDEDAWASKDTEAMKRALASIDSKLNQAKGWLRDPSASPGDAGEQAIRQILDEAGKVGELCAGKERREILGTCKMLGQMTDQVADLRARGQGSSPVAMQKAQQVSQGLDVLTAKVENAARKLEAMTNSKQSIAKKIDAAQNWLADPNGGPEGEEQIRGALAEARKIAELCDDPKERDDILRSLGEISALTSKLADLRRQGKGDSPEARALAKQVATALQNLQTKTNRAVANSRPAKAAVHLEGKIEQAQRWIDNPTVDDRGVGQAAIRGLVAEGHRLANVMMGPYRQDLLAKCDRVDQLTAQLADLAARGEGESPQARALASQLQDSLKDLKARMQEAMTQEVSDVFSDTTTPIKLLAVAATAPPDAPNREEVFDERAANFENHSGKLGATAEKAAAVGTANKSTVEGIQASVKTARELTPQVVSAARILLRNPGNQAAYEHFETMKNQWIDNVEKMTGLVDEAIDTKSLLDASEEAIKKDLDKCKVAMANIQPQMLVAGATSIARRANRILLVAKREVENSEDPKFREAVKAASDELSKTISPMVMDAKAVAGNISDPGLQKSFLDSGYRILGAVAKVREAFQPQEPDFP
The series can be described thus: native gel or EMSA; reciprocal tail displacement: competing tail domains titrated into preformed VH:tail complexes at 2- and 10-fold molar excess; details in Methods S1. The conditions noted are these: both partners purified. (A gel shift assay detects complexes by their altered migration in electrophoresis.)

Series [3] concerns the molecule itself. The series can be described thus: SEC; Hiload 26/60 Superdex 200 calibrated with molecular weight markers; without PIP2. (Size exclusion chromatography separates by hydrodynamic size, large species first.)

B1: MVt-ΔH1 (residues 959–1,130) as detected by His-tag Western blot in the GST-Vt pull-down (domain or fragment, human, UniProt P18206 959-1130, looked up)
chain: NQPVNQPILAAAQSLHREATKWSSKGNDIIAAAKRMALLMAEMSRLVRGGSGTKRALIQCAKDIAKASDEVTRLAKEVAKQCTDKRIRTNLLQVCERIPTISTQLKILSTVKATMLGRTNISDEESEQATEMLVHNAQNLMQSVKETVREAEAASIKIRTDAGFTLRWVRKT
notes: human metavinculin (1,134 residues), residues 959-1,130; Same construct as m3; source: E. coli, auto-induction media, purified; not shown: His8, N-terminal, kept
Regarding B1, the binding result in series [1] was “binds”.

B2: MVt-ΔH1 (residues 959–1,130) (domain or fragment, human, UniProt P18206 959-1130, looked up)
chain: B1 chain
notes: human metavinculin (1,134 residues), residues 959-1,130 (five-helix bundle H1′, H2-H5); The His-detected form of the pull-down is m17; also called MVt five-helix bundle (α-helices H1′, H2–H5); not shown: His8, N-terminal, cleaved
Consider B2, for which the binding result in series [2] is listed as “binds”.

B3: metavinculin tail domain (MVt; residues 879–1,134) (domain or fragment, human, UniProt P18206 879-1134, looked up)
chain: EEKDEEFPEQKAGEVINQPMMMAARQLHDEARKWSSKPGIPAAEVGIGVVAEADAADAAGFPVPPDMEDDYEPELLLMPSNQPVNQPILAAAQSLHREATKWSSKGNDIIAAAKRMALLMAEMSRLVRGGSGTKRALIQCAKDIAKASDEVTRLAKEVAKQCTDKRIRTNLLQVCERIPTISTQLKILSTVKATMLGRTNISDEESEQATEMLVHNAQNLMQSVKETVREAEAASIKIRTDAGFTLRWVRKTPWYQ
notes: human metavinculin (1,134 residues) tail domain, residues 879-1,134; Tag-cleaved form as told in the purification methods; the His-detected form of the pull-down is m16; not shown: His6, N-terminal, cleaved
Take B3: the binding result in series [2] is recorded as “binds”.

B4: MVt-R975W (residues 879–1134) (domain or fragment, human, UniProt P18206 879-1134, looked up)
chain: B3 chain with R97W
notes: human metavinculin tail domain, residues 879-1,134, with the cardiomyopathy-associated mutation Arg975Trp; also called MVt-Arg975Trp; not shown: His6, N-terminal, cleaved
For B4, in series [2], the binding result is listed as “binds”.

B5: metavinculin-ΔH1′ (lacking residues 963–983) (natural protein, human, UniProt P18206 1-1134, looked up)
chain: MPVFHTRTIESILEPVAQQISHLVIMHEEGEVDGKAIPDLTAPVAAVQAAVSNLVRVGKETVQTTEDQILKRDMPPAFIKVENACTKLVQAAQMLQSDPYSVPARDYLIDGSRGILSGTSDLLLTFDEAEVRKIIRVCKGILEYLTVAEVVETMEDLVTYTKNLGPGMTKMAKMIDERQQELTHQEHRVMLVNSMNTVKELLPVLISAMKIFVTTKNSKNQGIEEALKNRNFTVEKMSAEINEIIRVLQLTSWDEDAWASKDTEAMKRALASIDSKLNQAKGWLRDPSASPGDAGEQAIRQILDEAGKVGELCAGKERREILGTCKMLGQMTDQVADLRARGQGSSPVAMQKAQQVSQGLDVLTAKVENAARKLEAMTNSKQSIAKKIDAAQNWLADPNGGPEGEEQIRGALAEARKIAELCDDPKERDDILRSLGEISALTSKLADLRRQGKGDSPEARALAKQVATALQNLQTKTNRAVANSRPAKAAVHLEGKIEQAQRWIDNPTVDDRGVGQAAIRGLVAEGHRLANVMMGPYRQDLLAKCDRVDQLTAQLADLAARGEGESPQARALASQLQDSLKDLKARMQEAMTQEVSDVFSDTTTPIKLLAVAATAPPDAPNREEVFDERAANFENHSGKLGATAEKAAAVGTANKSTVEGIQASVKTARELTPQVVSAARILLRNPGNQAAYEHFETMKNQWIDNVEKMTGLVDEAIDTKSLLDASEEAIKKDLDKCKVAMANIQPQMLVAGATSIARRANRILLVAKREVENSEDPKFREAVKAASDELSKTISPMVMDAKAVAGNISDPGLQKSFLDSGYRILGAVAKVREAFQPQEPDFPPPPPDLEQLRLTDELAPPKPPLPEGEVPPPRPPPPEEKDEEFPEQKAGEVINQPMMMAARQLHDEARKWSSKPGIPAAEVGIGVVAEADAADAAGFPVPPDMEDDYEPELLLMPSNQPVGNDIIAAAKRMALLMAEMSRLVRGGSGTKRALIQCAKDIAKASDEVTRLAKEVAKQCTDKRIRTNLLQVCERIPTISTQLKILSTVKATMLGRTNISDEESEQATEMLVHNAQNLMQSVKETVREAEAASIKIRTDAGFTLRWVRKTPWYQ
notes: human metavinculin, full length (1-1,134) lacking residues 963-983 (α-helix H1′): 1-962 joined to 984-1,134; also called MV-ΔH1′; source: E. coli BL21-DE3, purified (as full-length metavinculin); not shown: His8, N-terminal, kept
With B5, the stoichiometry N (in general, the number of molecules, sites or subunits per partner or assembly) in series [3] worked out at 2.

B6: metavinculin-ΔH1ΔH1′ (lacking residues 895–915 and 963–983) (natural protein, human, UniProt P18206 1-1134, looked up)
chain: MPVFHTRTIESILEPVAQQISHLVIMHEEGEVDGKAIPDLTAPVAAVQAAVSNLVRVGKETVQTTEDQILKRDMPPAFIKVENACTKLVQAAQMLQSDPYSVPARDYLIDGSRGILSGTSDLLLTFDEAEVRKIIRVCKGILEYLTVAEVVETMEDLVTYTKNLGPGMTKMAKMIDERQQELTHQEHRVMLVNSMNTVKELLPVLISAMKIFVTTKNSKNQGIEEALKNRNFTVEKMSAEINEIIRVLQLTSWDEDAWASKDTEAMKRALASIDSKLNQAKGWLRDPSASPGDAGEQAIRQILDEAGKVGELCAGKERREILGTCKMLGQMTDQVADLRARGQGSSPVAMQKAQQVSQGLDVLTAKVENAARKLEAMTNSKQSIAKKIDAAQNWLADPNGGPEGEEQIRGALAEARKIAELCDDPKERDDILRSLGEISALTSKLADLRRQGKGDSPEARALAKQVATALQNLQTKTNRAVANSRPAKAAVHLEGKIEQAQRWIDNPTVDDRGVGQAAIRGLVAEGHRLANVMMGPYRQDLLAKCDRVDQLTAQLADLAARGEGESPQARALASQLQDSLKDLKARMQEAMTQEVSDVFSDTTTPIKLLAVAATAPPDAPNREEVFDERAANFENHSGKLGATAEKAAAVGTANKSTVEGIQASVKTARELTPQVVSAARILLRNPGNQAAYEHFETMKNQWIDNVEKMTGLVDEAIDTKSLLDASEEAIKKDLDKCKVAMANIQPQMLVAGATSIARRANRILLVAKREVENSEDPKFREAVKAASDELSKTISPMVMDAKAVAGNISDPGLQKSFLDSGYRILGAVAKVREAFQPQEPDFPPPPPDLEQLRLTDELAPPKPPLPEGEVPPPRPPPPEEKDEEFPEQKAGEVIPGIPAAEVGIGVVAEADAADAAGFPVPPDMEDDYEPELLLMPSNQPVGNDIIAAAKRMALLMAEMSRLVRGGSGTKRALIQCAKDIAKASDEVTRLAKEVAKQCTDKRIRTNLLQVCERIPTISTQLKILSTVKATMLGRTNISDEESEQATEMLVHNAQNLMQSVKETVREAEAASIKIRTDAGFTLRWVRKTPWYQ
notes: human metavinculin, full length (1-1,134) lacking residues 895-915 (H1) and 963-983 (H1′); source: E. coli BL21-DE3, purified (as full-length metavinculin); not shown: His8, N-terminal, kept
For the molecule B6, the “stoichiometry N” value in series [3] came out at 2.
